Molecular target: T1, purified His-tagged Smad4 (human, UniProt Q13485 1-552)
T1 sequence (looked up): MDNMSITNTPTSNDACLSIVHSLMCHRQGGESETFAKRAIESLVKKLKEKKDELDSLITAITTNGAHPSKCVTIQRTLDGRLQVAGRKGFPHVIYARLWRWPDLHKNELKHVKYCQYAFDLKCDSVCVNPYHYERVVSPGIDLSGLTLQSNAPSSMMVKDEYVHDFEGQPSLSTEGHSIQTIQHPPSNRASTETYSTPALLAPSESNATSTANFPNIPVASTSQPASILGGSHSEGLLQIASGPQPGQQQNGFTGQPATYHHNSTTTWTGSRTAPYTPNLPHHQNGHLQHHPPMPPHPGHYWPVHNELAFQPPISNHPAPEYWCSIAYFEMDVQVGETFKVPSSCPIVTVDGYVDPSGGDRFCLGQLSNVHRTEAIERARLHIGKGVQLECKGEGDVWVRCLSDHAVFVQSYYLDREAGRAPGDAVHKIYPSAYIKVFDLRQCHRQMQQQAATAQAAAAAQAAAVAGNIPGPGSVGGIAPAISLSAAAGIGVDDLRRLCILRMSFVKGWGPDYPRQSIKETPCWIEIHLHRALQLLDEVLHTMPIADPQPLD
Assay: pull-down

B1: GST-RBPMS(1–100) (domain or fragment)
chain: not shown
Does B1 bind?
Result: binds

— paper PMC1669761 (Nucleic Acids Research, 2006)
